This note sets out measurements from article PMC10537722, “Proline Dehydrogenase and Pyrroline 5 Carboxylate Dehydrogenase from Mycobacterium tuberculosis: Evidence for Substrate Channeling” (Pathogens, 2023).

Data set [1] concerns the target T1, proline dehydrogenase (PruB) (Mycobacterium tuberculosis, UniProt O50444).
T1 construct: gene Rv1188
Nature of the data set: […]; added FAD makes little difference to activity. It counts as binding.

Data set [2] deals with CC(C)=CCC/C(C)=C/CC1=C(C)C(=O)c2ccccc2C1=O. Kind of data set: purified protein. The note with it: FAD; pH 7.0; 25.0 °C.
A further data set deals with O=C(O)[C@@H]1CCCN1. Nature of the data set: purified protein. The note with it: FAD; pH 7.0; 25.0 °C.
The test system of data set [3] is CC(C)=CCC1=C(C)C(=O)c2ccccc2C1=O. Nature of the data set: purified protein. The note with it: FAD; pH 7.0; 25.0 °C.
Data set [4] has as its system COC1=C(OC)C(=O)C(CC=C(C)C)=C(C)C1=O. Kind of data set: purified protein. As to conditions: FAD; pH 7.0; 25.0 °C.
In data set [5] the test system is CC1=C(CCC(C)C)C(=O)c2ccccc2C1=O. Nature of the data set: purified protein. The note with it: FAD; pH 7.0; 25.0 °C.

T1 sequence (O50444 1-329): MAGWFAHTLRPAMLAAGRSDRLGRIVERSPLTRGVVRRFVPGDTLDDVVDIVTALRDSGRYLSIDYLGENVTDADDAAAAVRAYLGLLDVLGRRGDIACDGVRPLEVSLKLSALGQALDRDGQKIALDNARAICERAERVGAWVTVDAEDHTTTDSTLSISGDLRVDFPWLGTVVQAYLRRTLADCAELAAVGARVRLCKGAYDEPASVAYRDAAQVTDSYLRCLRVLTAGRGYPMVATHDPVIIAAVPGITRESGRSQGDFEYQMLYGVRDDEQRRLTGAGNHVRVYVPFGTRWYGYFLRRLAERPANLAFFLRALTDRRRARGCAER

On to `Cc1cc2nc3c(=O)[nH]c(=O)nc-3n(C[C@H](O)[C@H](O)[C@H](O)COP(=O)(O)OP(=O)(O)OC[C@H]3O[C@@H](n4cnc5c(N)ncnc54)[C@H](O)[C@@H]3O)c2cc1C` [FAD], for which, in data set [1], the “co-purification with the enzyme (yellow protein); added FAD makes little differen” value is on record as “the addition of FAD to the assay buffer resulted in little difference in activity, confirming the copurification”.
With “proline dehydrogenase (PruB) (Mycobacterium tuberculosis H37Rv)”, the Michaelis constant (Km) (commonly the concentration of substrate that gives half-maximal velocity) came to 12 ± 0.66 µM in data set [2]; 2500 ± 300 µM in the data set with O=C(O)[C@@H]1CCCN1; 23 ± 3.2 µM in data set [3]; 9.7 ± 1.4 µM in data set [4]; 46 ± 13 µM in data set [5]. For the same molecule, the figures for the kcat (in the data set with O=C(O)[C@@H]1CCCN1; in data set [4]) were 1.7 s⁻¹ and 2.3 s⁻¹, respectively. Moreover, the kcat/Km – broadly, the second-order rate constant that governs catalysis at low substrate concentration – in the data set on O=C(O)[C@@H]1CCCN1 amounted to 690 M⁻¹ s⁻¹; in data set [4] it was 230000 M⁻¹ s⁻¹.
